Reference: patent US20220259593A1, “CONTROL OF MAMMALIAN GENE DOSAGE USING CRISPR” (The Regents of the University of California, priority 2019, published 2022)

Each molecule was assayed on K562 CRISPRi cells (assay: Constant region variant library pooled growth screen, K562). Settings: sgRNA constant region variants; activity relative to the original, un-modified constant region cr995.
Type: cell-based, human
How it was run: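 Cells were selected with puromycin for 2 days and then kept in RPMI-1640 spinner cultures, with duplicates handled separately. Targeting sequences comprised 3 sgRNAs per essential gene for 10 genes plus six non-targeting controls. Activities were normalized against pairing with the unmodified scaffold.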

Row | Molecule | Mean relative activity
1 | cr899 (nucleic acid, listed as DNA, chemistry not fully specified) guide: GTTTAAGAGCTAAGCTGGAAACAGCATAGCAAGTTTAAATAAGACTAGTTCGTTATCAGCTTGAAAAAGCGGTACCGAGTCGGTACT | 0.8583
2 | cr391 (nucleic acid, listed as DNA, chemistry not fully specified) guide: GTTTAAGAGCTAAGCTGGAAACAGCATAGCAAGTTTAAATAAGCCTAGTGCGTTATCAACTTGAAAAAGTGGCAACGAGTCGTTGCT | 0.8216
3 | cr829 (nucleic acid, listed as DNA, chemistry not fully specified) guide: GTTTAAGAGCTAAGCTGGAAACAGCATACCAAGTTTAAATAAGGCTAGTCCGTTATCAACTTGAAAAAGTGGCACCGAGTCGGTGCT | 0.8571
4 | cr590 (nucleic acid, listed as DNA, chemistry not fully specified) guide: GTTTAAGAGCTAAGCTGGAAACAGCATAGCAAGTTTAAATAAGGCTAGTCCGTTATCAACTTGACAAAGTGGCACCGAGCCGGTGCT | 0.8361
5 | cr370 (nucleic acid, listed as DNA, chemistry not fully specified) guide: GTTTAAGAGCTAAGCTGGAAACAGCATAGCAAGTTTAAATAAGGCTAGTCCGTTATCAACTTGAGAAAGTGGCACGGAGTCCGTGCT | 0.8417
6 | cr362 (nucleic acid, listed as DNA, chemistry not fully specified) guide: GTTTAAGAGCTAAGCTGGAAACAGCATAGCAAGTTTAAATAAGGCTAGTCCGTTATCAACTTGAAAAAGTGGCACAGAGTCGGTGCT | 0.8214
7 | cr407 (nucleic acid, listed as DNA, chemistry not fully specified) guide: GTTTAAGAGCTAAGCTGGAAACAGCATAGCAAGTTTAAATAAGCCTAGTGCGTTATCAACCTGAAAAGGTGGCATCGAGTCGATGCT | 0.8278
8 | cr816 (nucleic acid, listed as DNA, chemistry not fully specified) guide: GTTTAAGAGCTAAGCTGGAAACAGCATAGCAAGTTTAAATAAGGCTAGTCCGTTATCAACTTGAAAAAGTTGCACCGAGTCGGTGCT | 0.8315
9 | cr785 (nucleic acid, listed as DNA, chemistry not fully specified) guide: GTTTAAGAGCTAAGCTGGAAACAGCATAGCAAGTTTAAATAAGGCGAGTCCGTTATCAACTTGAAAAAGTGGCACCGAGTCGGTGCG | 0.8378
10 | cr676 (nucleic acid, listed as DNA, chemistry not fully specified) guide: GTTTAAGAGCTAAGCTGGAAACAGCATAGCAAGTTTAAATAAGGCTAGTCCGTTATCAACTTGGAAAAGTTGCACCGAGTCGGTGCT | 0.8506
11 | cr601 (nucleic acid, listed as DNA, chemistry not fully specified) guide: GTTTAAGAGCTAAGCTGGAAACAGCATAGAAAGTTTAAATAAGGCTAGTCCGTTATCAACTTGAAAAAGTGGCACCGAGTCGGTGCT | 0.8216
12 | cr919 (nucleic acid, listed as DNA, chemistry not fully specified) guide: GTTTAAGAGCTAAGCTGGAAACAGCATAGCAAGTTTAAATAAGGCTAGTCCGTTATCACCTGGAAACAGGGGCACCGAGTCGGTGCT | 1.056
13 | cr871 (nucleic acid, listed as DNA, chemistry not fully specified) guide: GTTTAAGAGCTAAGCTGGAAACAGCATAGCAAGTTTAAATAAGCCTAGTGCGTTATCAACTTGAAAAAGTGGCACCGAGTCGGTGCT | 0.8313
14 | cr916 (nucleic acid, listed as DNA, chemistry not fully specified) guide: GTTTAAGAGCTAAGCTGGAAACAGCATAGCAAGTTTAAATAAGACTAGTTCGTTATCAACTTGAGAAAGTGGCACCGAGTCGGTGCT | 0.8207
15 | cr319 (nucleic acid, listed as DNA, chemistry not fully specified) guide: GTTTAAGAGCTAAGCTGGAAACAGCATAGCAAGTTTAAATAGGGCTAGTCCGTTATCAACTTGAGAAAGTGGCACCGAGTCGGTGCT | 0.8419
16 | cr162 (nucleic acid, listed as DNA, chemistry not fully specified) guide: GTTTAAGAGCTAAGCTGGAAACAGCATAGCAAGTTTAAATAAGGCTAGTCCGTTATCAACTTGAAAAAGTGGCACCGAGTCGGAGCT | 0.8263

Row | Molecule | Mean relative activity
17 | cr420 (nucleic acid, listed as DNA, chemistry not fully specified) guide: GTTTAAGAGCTAAGCTGGAAACAGCATAGCAAGTTTAAATAAGGCTAGTCCGTTATCAACTTGAAAAAGTGTGACCTAGTAGGTCAT | 0.8229
18 | cr022 (nucleic acid, listed as DNA, chemistry not fully specified) guide: GTTTAAGTGCTAAGCTGGAAACAGCATAGCAAGTTTAAATAAGGCTAGTCCGTTATCAACTTGAAAAAGTGGCACCGAGTCGGTGCT | 1.058
19 | cr554 (nucleic acid, listed as DNA, chemistry not fully specified) guide: GTTTAAGAGCTAAGCTGGAAACAGCATAGCAGGTTTAAATAAGGCTAGTCCGTTACCAACTTGAAAAAGTAGCACCGAGTCGGTGCT | 0.8332
20 | cr543 (nucleic acid, listed as DNA, chemistry not fully specified) guide: GTTTAAGAGCTAAGCTGGAAACAGCATAGCAAGTCTAAATAAGGCTAGTCCGTTATCAACTTGAAAAAGTGGCACCGAGTCGGTGCT | 0.8231
21 | cr960 (nucleic acid, listed as DNA, chemistry not fully specified) guide: GTTTAAGAGCTAAGCTGGAAACAGCATAGCAAGTTTAAATAAGGCTAGTCCGTTATCATATTGAAAAATAGGCACCGAGTCGGTGCT | 0.8446
22 | cr289 (nucleic acid, listed as DNA, chemistry not fully specified) guide: GTTTAAGAGCTAAGCTGGAAACAGCATAGCAAGTTTAAATAAGGCTAGTCCGTTATCAACTGGAAACAGTGGCACCGAGTCGGTGCT | 1.102
23 | cr914 (nucleic acid, listed as DNA, chemistry not fully specified) guide: GTTTAAGAGCTAAGCTGGAAACAGCATAGCAAGTTTAAATAAGACTAGTTCGTTATCAACTTGAAAAAGTGGGACCGAGTCGGTCCT | 0.8494
24 | cr495 (nucleic acid, listed as DNA, chemistry not fully specified) guide: GTTTAAGAGCTAAGCTGGAAACAGCATAGCAAGTTTAAATAAGGCTAGTCCGTTATCAACTTGAAAAAGTGGCACCGAGACGGTGCT | 0.8462
25 | cr435 (nucleic acid, listed as DNA, chemistry not fully specified) guide: GTTTAAGAGCTAAGCTGGAAACAGCATAGCCAGTTTAAATAAGGCTAGTCCGGTATCAACTTGAAAAAGTGGCACCGAGTCGGTGCT | 0.8281
26 | cr169 (nucleic acid, listed as DNA, chemistry not fully specified) guide: GTTTAAGAGCTAAGCTGGAAACAGCATAGCAAGTTTAAATAAGGCTAGTCCGTTATCAACTTGAGAAAGTGGCACCGAGCCGGTGCT | 0.8454
27 | cr943 (nucleic acid, listed as DNA, chemistry not fully specified) guide: GTTTAAGAGCTAAGCTGGAAACAGCATAGCAAGTTTAAATAAGGCTAGTCCGTTATCAACTTGAAAAAGTGACAACGAGTCGTTGTT | 0.8464
28 | cr647 (nucleic acid, listed as DNA, chemistry not fully specified) guide: GTTTAAGAGCTAAGCTGGAAACAGGATAGCAAGTTTAAATAAGGCTAGTCCGTTATCAACTTGAAAAAGTGGCACCGAGTCGGTGCT | 0.8408
29 | cr688 (nucleic acid, listed as DNA, chemistry not fully specified) guide: GTTTAAGAGCTAAGCTGGAAACAGCATAGCAAGTTTAAATAAGGCTAGTCCGTTATCAACTTGATAAAGTGGCACCGAGCCGGTGCT | 0.848
30 | cr717 (nucleic acid, listed as DNA, chemistry not fully specified) guide: GTTTAAGAGCTAAGCTGGAAACAGCATAGCAAGTTTAAATAAGGTTAATCCGTTATCAGCTTGAAAAAGCGGCACCGAGTCGGTGCT | 1.056
31 | cr878 (nucleic acid, listed as DNA, chemistry not fully specified) guide: GTTTAAGAGCTAAGCTGGAAACAGCATAGCAAGTTTAAATAAGGTTAATCCGTTATCAATTTGAAAAAATGGCATCGAGTCGATGCT | 0.847
